# Laboratory results taken from paper PMC11842806, “Molecular basis of foreign DNA recognition by BREX anti-phage immunity system” (Nature Communications, 2025).
# B1: 20 bp BREX, biotin (dsDNA)
# DNA 1: AGTCAGTGGTAAGGTCAGGA
# DNA 2: TCCTGACCTTACCACTGACT
# B2: 43 bp scrambled (dsDNA)
# DNA 1: AGTCAGTAGTGAGGTCAGGAATGAGTCAGTCTCACTGTCAGGA
# DNA 2: TCCTGACAGTGAGACTGACTCATTCCTGACCTCACTACTGACT
# B3: 40 bp BREX, biotin (dsDNA)
# DNA 1: TCAGTAGTCAAGTCAGTGGTAAGGTCAGGACAGGAGTCAG
# DNA 2: CTGACTCCTGTCCTGACCTTACCACTGACTTGACTACTGA
# B4: 40 bp BREX (dsDNA)
# DNA 1: TCAGTAGTCAAGTCAGTGGTAAGGTCAGGACAGGAGTCAG
# DNA 2: CTGACTCCTGTCCTGACCTTACCACTGACTTGACTACTGA
# B5: 50 bp BREX (dsDNA)
# DNA 1: AGTCATCAGTAGTCAAGTCAGTGGTAAGGTCAGGACAGGAGTCAGCAGGA
# DNA 2: TCCTGCTGACTCCTGTCCTGACCTTACCACTGACTTGACTACTGATGACT
# B6: 43 bp, 1 BREX site (dsDNA)
# DNA 1: AGTCAGTGGTAAGGTCAGGAATGAGTCAGTTGGCAAGTCAGGA
# DNA 2: TCCTGACTTGCCAACTGACTCATTCCTGACCTTACCACTGACT
# B7: 43 bp, 2 BREX sites head-to-tail (H2T) (dsDNA)
# DNA 1: AGTCAGTGGTAAGGTCAGGAATGAGTCAGTGGTAAGGTCAGGA
# DNA 2: TCCTGACCTTACCACTGACTCATTCCTGACCTTACCACTGACT
# Tests used:
# BrxX:Ocr (BrxX2:Ocr2) = target: T1, BrxX:Ocr (BrxX2:Ocr2) (Escherichia coli, UniProt P0DUF9); experiment: cryoEM structure ([…] A); type: binding; details: Ocr bound, no DNA, Mg2+, CHAPSO, pH 7.5; site: methyltransferase domain pocket; SAM modelled from the DNA-bound structure
# T1 construct: gene pglX; full-length BrxX with N-terminal His6 kept plus T7 Ocr with N-His-TEV kept; both expressed in E. coli BW25113; BrxX2:Ocr2 complex; with Protein Ocr (Escherichia phage T7)
# T1 sequence (P0DUF9 1-1205): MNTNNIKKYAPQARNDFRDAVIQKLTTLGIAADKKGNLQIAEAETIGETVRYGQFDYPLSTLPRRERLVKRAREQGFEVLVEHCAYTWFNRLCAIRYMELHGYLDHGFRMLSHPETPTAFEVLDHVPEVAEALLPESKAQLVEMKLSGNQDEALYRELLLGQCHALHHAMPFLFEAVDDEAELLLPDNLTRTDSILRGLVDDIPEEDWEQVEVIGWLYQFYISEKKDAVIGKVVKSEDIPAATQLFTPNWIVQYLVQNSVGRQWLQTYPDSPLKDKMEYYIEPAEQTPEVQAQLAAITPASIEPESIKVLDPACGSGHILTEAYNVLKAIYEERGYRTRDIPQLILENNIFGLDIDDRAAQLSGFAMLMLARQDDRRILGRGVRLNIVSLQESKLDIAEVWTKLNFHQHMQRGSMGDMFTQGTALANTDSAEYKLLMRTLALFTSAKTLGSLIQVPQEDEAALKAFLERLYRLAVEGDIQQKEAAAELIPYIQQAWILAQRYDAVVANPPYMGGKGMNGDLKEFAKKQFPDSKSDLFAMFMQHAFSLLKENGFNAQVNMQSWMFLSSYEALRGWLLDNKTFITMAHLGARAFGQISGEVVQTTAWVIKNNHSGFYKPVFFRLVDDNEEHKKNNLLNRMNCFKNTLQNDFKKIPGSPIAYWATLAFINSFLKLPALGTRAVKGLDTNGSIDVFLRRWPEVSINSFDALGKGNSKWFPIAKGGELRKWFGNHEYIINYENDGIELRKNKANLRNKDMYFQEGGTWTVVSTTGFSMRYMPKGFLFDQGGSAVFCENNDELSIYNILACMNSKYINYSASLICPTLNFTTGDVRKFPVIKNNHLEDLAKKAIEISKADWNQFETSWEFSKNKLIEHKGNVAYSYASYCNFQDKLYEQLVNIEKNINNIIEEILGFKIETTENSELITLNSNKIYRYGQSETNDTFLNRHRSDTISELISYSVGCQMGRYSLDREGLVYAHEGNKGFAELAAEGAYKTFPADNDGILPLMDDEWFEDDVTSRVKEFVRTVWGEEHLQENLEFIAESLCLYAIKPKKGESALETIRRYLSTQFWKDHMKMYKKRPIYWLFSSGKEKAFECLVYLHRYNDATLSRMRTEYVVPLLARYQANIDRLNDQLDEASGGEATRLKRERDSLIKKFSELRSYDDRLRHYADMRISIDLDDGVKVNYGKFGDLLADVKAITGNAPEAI
# T1 sequence (P03775 1-117 partner): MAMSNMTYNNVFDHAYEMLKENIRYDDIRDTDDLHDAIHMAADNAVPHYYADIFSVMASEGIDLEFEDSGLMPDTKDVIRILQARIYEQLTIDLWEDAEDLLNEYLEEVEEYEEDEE
# BrxX (PglX) [1] = target: T2, BrxX (PglX) (Escherichia coli HS, UniProt P0DUF9 1-1205); experiment: BLI; 1:1 fit, stimulated by SAM; Kd only in figure; EMSA: 20 nM Cy5-DNA, 0.5x TBE pH 8.0, 35 mM NaCl, 5% glycerol, +/-0.5 mM SAM or SAH, 30 min, room temperature; BLI: 20 mM Tris-HCl pH 8.0, 100 mM NaCl, 0.05 mg/mL BSA, 0.02% Tween-20, +/-0.5 mM SAM, 30 C; details: protein: recombinant; tags: N-His6; label: 5'-biotin on strand 1; blunt
# T2 sequence: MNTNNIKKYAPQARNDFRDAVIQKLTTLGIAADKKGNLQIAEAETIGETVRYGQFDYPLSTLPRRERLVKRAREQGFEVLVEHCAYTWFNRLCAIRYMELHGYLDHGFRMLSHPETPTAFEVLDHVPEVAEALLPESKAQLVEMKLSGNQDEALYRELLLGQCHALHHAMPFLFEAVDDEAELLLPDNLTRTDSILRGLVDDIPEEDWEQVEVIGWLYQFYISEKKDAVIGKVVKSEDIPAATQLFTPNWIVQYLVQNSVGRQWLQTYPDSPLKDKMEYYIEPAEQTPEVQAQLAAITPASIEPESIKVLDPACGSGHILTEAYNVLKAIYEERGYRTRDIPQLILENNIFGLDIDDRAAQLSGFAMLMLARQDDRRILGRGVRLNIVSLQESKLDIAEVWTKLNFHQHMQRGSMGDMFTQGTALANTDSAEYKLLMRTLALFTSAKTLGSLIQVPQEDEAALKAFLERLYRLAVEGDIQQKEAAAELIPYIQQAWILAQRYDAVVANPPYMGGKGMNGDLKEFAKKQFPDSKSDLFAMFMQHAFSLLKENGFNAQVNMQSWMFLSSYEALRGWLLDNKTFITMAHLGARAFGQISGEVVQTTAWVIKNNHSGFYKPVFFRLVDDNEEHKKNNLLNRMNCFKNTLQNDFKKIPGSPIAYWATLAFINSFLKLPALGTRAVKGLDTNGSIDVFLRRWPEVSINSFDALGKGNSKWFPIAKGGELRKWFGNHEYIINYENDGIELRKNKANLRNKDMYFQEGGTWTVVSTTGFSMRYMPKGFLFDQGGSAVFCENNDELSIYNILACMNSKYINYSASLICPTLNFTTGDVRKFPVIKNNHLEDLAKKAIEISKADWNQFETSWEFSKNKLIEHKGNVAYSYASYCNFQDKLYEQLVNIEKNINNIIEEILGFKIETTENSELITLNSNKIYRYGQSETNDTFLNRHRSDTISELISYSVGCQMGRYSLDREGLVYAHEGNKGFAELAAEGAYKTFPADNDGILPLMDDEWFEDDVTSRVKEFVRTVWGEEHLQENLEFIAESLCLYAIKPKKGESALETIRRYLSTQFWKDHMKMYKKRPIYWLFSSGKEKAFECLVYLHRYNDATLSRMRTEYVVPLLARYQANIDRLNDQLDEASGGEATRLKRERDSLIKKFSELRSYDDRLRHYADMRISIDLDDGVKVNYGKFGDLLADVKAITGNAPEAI
# BrxX (PglX) [2] = target: T2, BrxX (PglX); experiment: EMSA; 0.5 mM SAM; EMSA: 20 nM Cy5-DNA, 0.5x TBE pH 8.0, 35 mM NaCl, 5% glycerol, +/-0.5 mM SAM or SAH, 30 min, room temperature; BLI: 20 mM Tris-HCl pH 8.0, 100 mM NaCl, 0.05 mg/mL BSA, 0.02% Tween-20, +/-0.5 mM SAM, 30 C; details: protein: recombinant; tags: N-His6; label: 5'-Cy5 on strand 1; blunt
# BrxA = target: T3, BrxA (Escherichia coli HS, UniProt P0DUF6 1-213); experiment: EMSA; EMSA: 20 nM Cy5-DNA, 0.5x TBE pH 8.0, 35 mM NaCl, 5% glycerol, +/-0.5 mM SAM or SAH, 30 min, room temperature; BLI: 20 mM Tris-HCl pH 8.0, 100 mM NaCl, 0.05 mg/mL BSA, 0.02% Tween-20, +/-0.5 mM SAM, 30 C; details: protein: recombinant; tags: N-His6; label: 5'-Cy5 on strand 1; blunt
# T3 sequence: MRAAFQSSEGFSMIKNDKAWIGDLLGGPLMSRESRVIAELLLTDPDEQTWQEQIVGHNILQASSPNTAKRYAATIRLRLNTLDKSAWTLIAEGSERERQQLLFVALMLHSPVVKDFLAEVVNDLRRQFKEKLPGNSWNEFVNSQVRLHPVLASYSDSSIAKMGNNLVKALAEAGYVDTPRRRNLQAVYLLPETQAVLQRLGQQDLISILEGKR
# BrxX (PglX) [3] = target: T2, BrxX (PglX); experiment: BLI; SAM; heterogeneous binding, no accurate Kd; EMSA: 20 nM Cy5-DNA, 0.5x TBE pH 8.0, 35 mM NaCl, 5% glycerol, +/-0.5 mM SAM or SAH, 30 min, room temperature; BLI: 20 mM Tris-HCl pH 8.0, 100 mM NaCl, 0.05 mg/mL BSA, 0.02% Tween-20, +/-0.5 mM SAM, 30 C; details: protein: recombinant; tags: N-His6; label: 5'-biotin on strand 1; blunt
# BrxX (PglX) [4] = target: T2, BrxX (PglX); experiment: EMSA; non-methylated partner of N9; no cofactor, SAM or SAH; EMSA: 20 nM Cy5-DNA, 0.5x TBE pH 8.0, 35 mM NaCl, 5% glycerol, +/-0.5 mM SAM or SAH, 30 min, room temperature; BLI: 20 mM Tris-HCl pH 8.0, 100 mM NaCl, 0.05 mg/mL BSA, 0.02% Tween-20, +/-0.5 mM SAM, 30 C; details: protein: recombinant; tags: N-His6; label: 5'-Cy5 on strand 1; blunt
# BrxX (PglX) [5] = target: T2, BrxX (PglX); experiment: EMSA; improved binding; with and without 0.5 mM SAM; EMSA: 20 nM Cy5-DNA, 0.5x TBE pH 8.0, 35 mM NaCl, 5% glycerol, +/-0.5 mM SAM or SAH, 30 min, room temperature; BLI: 20 mM Tris-HCl pH 8.0, 100 mM NaCl, 0.05 mg/mL BSA, 0.02% Tween-20, +/-0.5 mM SAM, 30 C; details: protein: recombinant; tags: N-His6; label: 5'-Cy5 on strand 1; blunt
# BrxX (PglX) [6] = target: T2, BrxX (PglX); experiment: EMSA; no cofactor; EMSA: 20 nM Cy5-DNA, 0.5x TBE pH 8.0, 35 mM NaCl, 5% glycerol, +/-0.5 mM SAM or SAH, 30 min, room temperature; BLI: 20 mM Tris-HCl pH 8.0, 100 mM NaCl, 0.05 mg/mL BSA, 0.02% Tween-20, +/-0.5 mM SAM, 30 C; details: protein: recombinant; tags: N-His6; label: 5'-Cy5 on strand 1; blunt
# BrxX (PglX) [7] = target: T2, BrxX (PglX); experiment: cryoEM structure (2.2 A); SAM, metal modelled as Mg2+; EMSA: 20 nM Cy5-DNA, 0.5x TBE pH 8.0, 35 mM NaCl, 5% glycerol, +/-0.5 mM SAM or SAH, 30 min, room temperature; BLI: 20 mM Tris-HCl pH 8.0, 100 mM NaCl, 0.05 mg/mL BSA, 0.02% Tween-20, +/-0.5 mM SAM, 30 C; details: protein: recombinant; tags: N-His6; blunt
molecule,measurement,setting,value
C[S+](CC[C@H](N)C(=O)O)C[C@H]1O[C@@H](n2cnc3c(N)ncnc32)[C@H](O)[C@@H]1O (some centres unmarked) [S-adenosyl methionine],cryoEM structure (2.8 A),BrxX:Ocr (BrxX2:Ocr2),The MTD displayed density for a molecule of SAM
B1,binding result,BrxX (PglX) [1],binds
B2,Kd,BrxX (PglX) [2],~300 nM
same,binding result,BrxA,binds
B3,binding result,BrxX (PglX) [3],binds
B4,binding result,BrxX (PglX) [4],binds
B5,binding result,BrxX (PglX) [5],binds
B6,Kd,BrxX (PglX) [6],~300 nM
same,Kd,BrxX (PglX) [2],~60 nM
same,binding result,BrxA,binds
B7,binding result,BrxX (PglX) [7],binds
